Assays:
[1] = molecular target: platelet glycoprotein Ib alpha (UniProt P07359); test: VWF:GPIb binding assay
[2] = molecular target: equine collagen (Horm), a mixture of 95 % collagen type I and 5 % type III (equine); test: VWF collagen binding assay

Substance | ratio of VWF:GPIbα binding to VWF:Ag [1] | VWF:GPIbα binding (in relation to rwtVWF) [1] | ratio of VWF:GPIbα binding to VWF:Ag in medium (in relation to rwtVWF) [1] | ratio of VWF:CB to VWF:Ag in medium (in relation to rwtVWF) [2]
plasma von Willebrand factor of a normal person (from UniProt P04275-1 764-2813) (natural protein) | 1.06 | – | – | –
recombinant wild type von Willebrand factor (from UniProt P04275-1 764-2813) (natural protein) | – | 1 | 1 | 1
